{"source": "patent US20070086998A1", "molecular_target": "HLA-DR as expressed on the tumor cell line", "assay": "cell-based or functional assay", "data": [{"binder": "MS-GPC-8-27-41 (IgG4 form) (antibody, V domains shown) VH: QVELKESGPALVKPTQTLTLTCTFSGFSLSTSGVGVGWIRQPPGKALEWLALIDWDDDKYYSTSLKTRLTISKDTSKNQVVLTMTNMDPVDTATYYCARSPRYRGAFDYWGQGTLVTVSS VL: DIVLTQPPSVSGAPGQRVTISCSGSESNIGNNYVQWYQQLPGTAPKLLIYDNNQRPSGVPDRFSGSKSGTSASLAITGLQSEDEADYYCQSYDMNVHVFGGGTKLTVLG", "values": [{"measurement": "% Killing by mAb; ARH-77 (DR 12); 50 nM, 4 h", "value": 85, "unit": "%"}, {"measurement": "% Killing by mAb; BJAB (DR 12,13); 50 nM, 4 h", "value": 71, "unit": "%"}, {"measurement": "% Killing by mAb; BONNA-12; 50 nM, 4 h", "value": 92, "unit": "%"}, {"measurement": "% Killing by mAb; DOHH-2 (DR 1,2); 50 nM, 4 h", "value": 59, "unit": "%"}, {"measurement": "% Killing by mAb; EOL-1; 50 nM, 4 h", "value": 69, "unit": "%"}, {"measurement": "% Killing by mAb; GRANTA-519 (DR 2,11); 50 nM, 4 h", "value": 78, "unit": "%"}, {"measurement": "% Killing by mAb; HC-1; 50 nM, 4 h", "value": 93, "unit": "%"}, {"measurement": "% Killing by mAb; HD-MY-Z; 50 nM, 4 h", "value": 69, "unit": "%"}, {"measurement": "% Killing by mAb; HDLM-2; 50 nM, 4 h", "value": 88, "unit": "%"}, {"measurement": "% Killing by mAb; KARPAS-299 (DR 1,2); 50 nM, 4 h", "value": 82, "unit": "%"}, {"measurement": "% Killing by mAb; KARPAS-422 (DR 2,4); 50 nM, 4 h", "value": 66, "unit": "%"}, {"measurement": "% Killing by mAb; KM-H2; 50 nM, 4 h", "value": 86, "unit": "%"}, {"measurement": "% Killing by mAb; L1236; 50 nM, 4 h", "value": 63, "unit": "%"}, {"measurement": "% Killing by mAb; L-363; 50 nM, 4 h", "value": 26, "unit": "%"}, {"measurement": "% Killing by mAb; L-428 (DR 12); 50 nM, 4 h", "value": 91, "unit": "%"}, {"measurement": "% Killing by mAb; LP-1; 50 nM, 4 h", "value": 73, "unit": "%"}, {"measurement": "% Killing by mAb; MHH-CALL-4 (DR 1,2); 50 nM, 4 h", "value": 63, "unit": "%"}, {"measurement": "% Killing by mAb; MHH-PREB-1; 50 nM, 4 h", "value": 4, "unit": "%"}, {"measurement": "% Killing by mAb; MN-60 (DR 10,13); 50 nM, 4 h", "value": 69, "unit": "%"}, {"measurement": "% Killing by mAb; NALM-1 (DR 1,4); 50 nM, 4 h", "value": 82, "unit": "%"}, {"measurement": "% Killing by mAb; RAJI (DR 10,17); 50 nM, 4 h", "value": 84, "unit": "%"}, {"measurement": "% Killing by mAb; RPMI-8226; 50 nM, 4 h", "value": 29, "unit": "%"}, {"measurement": "% Killing by mAb; SR-786 (DR 1,2); 50 nM, 4 h", "value": 53, "unit": "%"}, {"measurement": "killing of melanoma cell line WM 115", "value": 21, "unit": "%"}]}, {"binder": "MS-GPC-8-10-57 (IgG4 form) (antibody, V domains shown) VH: QVELKESGPALVKPTQTLTLTCTFSGFSLSTSGVGVGWIRQPPGKALEWLALIDWDDDKYYSTSLKTRLTISKDTSKNQVVLTMTNMDPVDTATYYCARSPRYRGAFDYWGQGTLVTVSS VL: DIVLTQPPSVSGAPGQRVTISCSGSESNIGNNYVQWYQQLPGTAPKLLIYDNNQRPSGVPDRFSGSKSGTSASLAITGLQSEDEADYYCQSYDLIRHVFGGGTKLTVLG", "values": [{"measurement": "% Killing by mAb; ARH-77 (DR 12); 50 nM, 4 h", "value": 88, "unit": "%"}, {"measurement": "% Killing by mAb; BJAB (DR 12,13); 50 nM, 4 h", "value": 67, "unit": "%"}, {"measurement": "% Killing by mAb; BONNA-12; 50 nM, 4 h", "value": 91, "unit": "%"}, {"measurement": "% Killing by mAb; DOHH-2 (DR 1,2); 50 nM, 4 h", "value": 60, "unit": "%"}, {"measurement": "% Killing by mAb; EOL-1; 50 nM, 4 h", "value": 49, "unit": "%"}, {"measurement": "% Killing by mAb; GRANTA-519 (DR 2,11); 50 nM, 4 h", "value": 78, "unit": "%"}, {"measurement": "% Killing by mAb; HC-1; 50 nM, 4 h", "value": 86, "unit": "%"}, {"measurement": "% Killing by mAb; HD-MY-Z; 50 nM, 4 h", "value": 57, "unit": "%"}, {"measurement": "% Killing by mAb; HDLM-2; 50 nM, 4 h", "value": 84, "unit": "%"}, {"measurement": "% Killing by mAb; KARPAS-299 (DR 1,2); 50 nM, 4 h", "value": 79, "unit": "%"}, {"measurement": "% Killing by mAb; KARPAS-422 (DR 2,4); 50 nM, 4 h", "value": 68, "unit": "%"}, {"measurement": "% Killing by mAb; KM-H2; 50 nM, 4 h", "value": 88, "unit": "%"}, {"measurement": "% Killing by mAb; L1236; 50 nM, 4 h", "value": 66, "unit": "%"}, {"measurement": "% Killing by mAb; L-363; 50 nM, 4 h", "value": 24, "unit": "%"}, {"measurement": "% Killing by mAb; L-428 (DR 12); 50 nM, 4 h", "value": 91, "unit": "%"}, {"measurement": "% Killing by mAb; LP-1; 50 nM, 4 h", "value": 70, "unit": "%"}, {"measurement": "% Killing by mAb; MHH-CALL-4 (DR 1,2); 50 nM, 4 h", "value": 46, "unit": "%"}, {"measurement": "% Killing by mAb; MHH-PREB-1; 50 nM, 4 h", "value": 8, "unit": "%"}, {"measurement": "% Killing by mAb; MN-60 (DR 10,13); 50 nM, 4 h", "value": 66, "unit": "%"}, {"measurement": "% Killing by mAb; NALM-1 (DR 1,4); 50 nM, 4 h", "value": 78, "unit": "%"}, {"measurement": "% Killing by mAb; RAJI (DR 10,17); 50 nM, 4 h", "value": 86, "unit": "%"}, {"measurement": "% Killing by mAb; RPMI-8226; 50 nM, 4 h", "value": 26, "unit": "%"}, {"measurement": "% Killing by mAb; SR-786 (DR 1,2); 50 nM, 4 h", "value": 44, "unit": "%"}]}, {"binder": "MS-GPC-8-17 (Fab) (Fab, V domains shown) VH: QVQLKESGPALVKPTQTLTLTCTFSGFSLSTSGVGVGWIRQPPGKALEWLALIDWDDDKYYSTSLKTRLTISKDTSKNQVVLTMTNMDPVDTATYYCARSPRYRGAFDYWGQGTLVTVSS VL: DIVLTQPPSVSGAPGQRVTISCSGSSSNIGSNYVSWYQQLPGTAPKLLIYDNNQRPSGVPDRFSGSKSGTSASLAITGLQSEDEADYYCQSYDFSVYVFGGGTKLTVLG", "values": [{"measurement": "maximum capacity to kill MHH-Call 4 cells", "value": 78, "unit": "%"}]}, {"binder": "MS-GPC-8-Fab (Fab, V domains shown) VH: QVQLKESGPALVKPTQTLTLTCTFSGFSLSTSGVGVGWIRQPPGKALEWLALIDWDDDKYYSTSLKTRLTISKDTSKNQVVLTMTNMDPVDTATYYCARSPRYRGAFDYWGQGTLVTVSS VL: DIVLTQPPSVSGAPGQRVTISCSGSSSNIGSNYVSWYQQLPGTAPKLLIYDNNQRPSGVPDRFSGSKSGTSASLAITGLQSEDEADYYCQSYDMPQAVFGGGTKLTVLG", "values": [{"measurement": "maximum capacity to kill MHH-Call 4 cells", "value": 65, "unit": "%"}]}, {"binder": "MS-GPC-8-6-13 (IgG4 form) (antibody, V domains shown) VH: QVELKESGPALVKPTQTLTLTCTFSGFSLSTSGVGVGWIRQPPGKALEWLALIDWDDDKYYSTSLKTRLTISKDTSKNQVVLTMTNMDPVDTATYYCARSPRYRGAFDYWGQGTLVTVSS VL: DIVLTQPPSVSGAPGQRVTISCSGSESNIGANYVTWYQQLPGTAPKLLIYDNNQRPSGVPDRFSGSKSGTSASLAITGLQSEDEADYYCQSYDYDHYVFGGGTKLTVLG", "values": [{"measurement": "% Killing by mAb; ARH-77 (DR 12); 50 nM, 4 h", "value": 87, "unit": "%"}, {"measurement": "% Killing by mAb; BJAB (DR 12,13); 50 nM, 4 h", "value": 64, "unit": "%"}, {"measurement": "% Killing by mAb; BONNA-12; 50 nM, 4 h", "value": 86, "unit": "%"}, {"measurement": "% Killing by mAb; DOHH-2 (DR 1,2); 50 nM, 4 h", "value": 53, "unit": "%"}, {"measurement": "% Killing by mAb; EOL-1; 50 nM, 4 h", "value": 53, "unit": "%"}, {"measurement": "% Killing by mAb; GRANTA-519 (DR 2,11); 50 nM, 4 h", "value": 73, "unit": "%"}, {"measurement": "% Killing by mAb; HC-1; 50 nM, 4 h", "value": 93, "unit": "%"}, {"measurement": "% Killing by mAb; HD-MY-Z; 50 nM, 4 h", "value": 72, "unit": "%"}, {"measurement": "% Killing by mAb; HDLM-2; 50 nM, 4 h", "value": 90, "unit": "%"}, {"measurement": "% Killing by mAb; KARPAS-299 (DR 1,2); 50 nM, 4 h", "value": 76, "unit": "%"}, {"measurement": "% Killing by mAb; KARPAS-422 (DR 2,4); 50 nM, 4 h", "value": 71, "unit": "%"}, {"measurement": "% Killing by mAb; KM-H2; 50 nM, 4 h", "value": 87, "unit": "%"}, {"measurement": "% Killing by mAb; L1236; 50 nM, 4 h", "value": 66, "unit": "%"}, {"measurement": "% Killing by mAb; L-363; 50 nM, 4 h", "value": 19, "unit": "%"}, {"measurement": "% Killing by mAb; L-428 (DR 12); 50 nM, 4 h", "value": 92, "unit": "%"}, {"measurement": "% Killing by mAb; LP-1; 50 nM, 4 h", "value": 73, "unit": "%"}, {"measurement": "% Killing by mAb; MHH-CALL-4 (DR 1,2); 50 nM, 4 h", "value": 43, "unit": "%"}, {"measurement": "% Killing by mAb; MHH-PREB-1; 50 nM, 4 h", "value": 11, "unit": "%"}, {"measurement": "% Killing by mAb; MN-60 (DR 10,13); 50 nM, 4 h", "value": 67, "unit": "%"}, {"measurement": "% Killing by mAb; NALM-1 (DR 1,4); 50 nM, 4 h", "value": 65, "unit": "%"}, {"measurement": "% Killing by mAb; RAJI (DR 10,17); 50 nM, 4 h", "value": 83, "unit": "%"}, {"measurement": "% Killing by mAb; RPMI-8226; 50 nM, 4 h", "value": 19, "unit": "%"}, {"measurement": "% Killing by mAb; SR-786 (DR 1,2); 50 nM, 4 h", "value": 26, "unit": "%"}]}, {"binder": "MS-GPC-8-6 (Fab) (Fab, V domains shown) VH: QVQLKESGPALVKPTQTLTLTCTFSGFSLSTSGVGVGWIRQPPGKALEWLALIDWDDDKYYSTSLKTRLTISKDTSKNQVVLTMTNMDPVDTATYYCARSPRYRGAFDYWGQGTLVTVSS VL: DIVLTQPPSVSGAPGQRVTISCSGSSSNIGSNYVSWYQQLPGTAPKLLIYDNNQRPSGVPDRFSGSKSGTSASLAITGLQSEDEADYYCQSYDYDHYVFGGGTKLTVLG", "values": [{"measurement": "maximum capacity to kill MHH-Call 4 cells", "value": 76, "unit": "%"}]}]}
